Assay [1] has as its target human NOXO1 SH3AB–E (tandem SH3 domains plus the C-terminal portion of NOXO1) (human). As to the kind of experiment: ITC; MicroCal VP-ITC, 18°C; 150 mM NaCl, 1 mM DTT, 50 mM HEPES pH 7.4; typically 20–40 µM protein in the cell, 200–300 µM ligand injected; single-site binding model; averaged over three to five experiments. (In general: ITC needs no label: the signal is the heat of the interaction.)

Assay [2] addresses human NOXO1 SH3AB–E triple mutant (proline residues 323, 326 and 329 to alanine) (human). Described as above.
Assay [3] deals with human NOXO1 tandem SH3 domains (SH3AB) (human). The description is as above.
The target in assay [4] is p22phox cytoplasmic domain (Homo sapiens) (UniProt P13498). Particulars: cited from earlier work.
Sequence of p22phox cytoplasmic domain (Homo sapiens) (P13498 132-195): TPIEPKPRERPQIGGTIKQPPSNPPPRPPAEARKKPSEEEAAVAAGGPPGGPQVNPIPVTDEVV
Assay [5] has as its target p67phox C-terminal SH3 (Homo sapiens) (UniProt P19878). Particulars: cited from earlier work.
Assay [6] concerns the target mouse NOXO1 tandem SH3 domains (SH3AB) (mouse). As to the kind of experiment: ITC; MicroCal VP-ITC, 18°C; 150 mM NaCl, 1 mM DTT, 50 mM HEPES pH 7.4; typically 20–40 µM protein in the cell, 200–300 µM ligand injected; single-site binding model; averaged over three to five experiments.

Sequence of p67phox C-terminal SH3 (Homo sapiens) (P19878 457-516): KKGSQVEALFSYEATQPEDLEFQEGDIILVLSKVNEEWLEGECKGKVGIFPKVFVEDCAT
Sequence of p47phox tandem SH3 (P14598 156-285): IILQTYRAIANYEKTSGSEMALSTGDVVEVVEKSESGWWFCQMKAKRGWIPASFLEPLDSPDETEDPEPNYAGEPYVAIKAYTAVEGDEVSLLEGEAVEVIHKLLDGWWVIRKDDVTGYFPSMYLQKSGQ
Sequence of p47phox C-terminal proline-rich region (P14598 359-390): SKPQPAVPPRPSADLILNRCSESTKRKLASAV

One may read the Kd as a measure of binding affinity in units of concentration. Take “human p22^phox cytoplasmic domain (p22^phoxC) (domain or fragment)”: the values for the dH in assay [1], in assay [2] and in assay [3] were -13.4 kJ/mol, -33.9 kJ/mol and -70.3 kJ/mol, respectively. Moreover, the Kd in assay [2] was found to be 0.53 µM; in assay [3], 0.15 µM.
In the case of “p47phox tandem SH3 (from UniProt P14598)”, the Kd in assay [4] was 0.19 µM.
With “p47phox C-terminal proline-rich region (from UniProt P14598)”, the Kd in assay [5] is 0.02 µM.
As to “mouse p22^phox cytoplasmic domain (p22^phoxC) (from UniProt Q61462 127-192) (domain or fragment)”, in assay [6], the Kd came out at 0.068 µM and the dH was -54 kJ/mol.

The record behind these values is publication PMC2864300, “Regulation of NOXO1 Activity through Reversible Interactions with p22^phox and NOXA1” (PLoS ONE, 2010).
